The values that follow come from the Immune Epitope Database (IEDB).

One assay deals with HLA-A*02:50. Put plainly: IEDB peptide-MHC binding, purified MHC/competitive/fluorescence; filed as Kd, often an IC50 or EC50 that approximates it; ≥ and ≤ were set here for values at or beyond the usual limits of such assays. The following applies: source organism: Shigella boydii CDC 3083-94.
A further assay has as its target HLA-B*40:01. Put plainly: IEDB peptide-MHC binding, purified MHC/direct/fluorescence; filed as Kd, often an IC50 or EC50 that approximates it; ≥ and ≤ were set here for values at or beyond the usual limits of such assays.
In a further assay the target is HLA-B*58:01. Described as above.
The next assay has as its target HLA-A*03:01. The assay is described as above.
Assay [1] concerns the target HLA-A*24:02. Described as above.
For the next assay, the target named is HLA-B*44:02. The assay is described as above. The following applies: source organism: Escherichia coli O157:H7.
The target of a further assay is HLA-B*07:02. The assay is described as above.
The target in assay [2] is HLA-B*18:01. The description is as above.
Assay [3] deals with HLA-A*69:01. The assay is described as above.
Another assay addresses HLA-A*31:01. The assay is described as above.
The next assay deals with HLA-A*11:01. Described as above.
A further assay deals with HLA-B*15:01. The assay is described as above.
The target in assay [4] is HLA-A*02:01. The description is as above.
Another assay addresses HLA-B*27:05. The assay is described as above.
The target in another assay is HLA-A*01:01. The description is as above.
The target of a further assay is HLA-A*80:01. The assay is described as above.
In another assay the target is HLA-A*30:01. Put plainly: IEDB peptide-MHC binding, purified MHC/competitive/fluorescence; filed as Kd, often an IC50 or EC50 that approximates it; ≥ and ≤ were set here for values at or beyond the usual limits of such assays. To be noted: source organism: Vibrio vulnificus YJ016.
The target of assay [5] is HLA-B*18:01. The assay is described as above. The following applies: source organism: Vibrio vulnificus YJ016.
The target of the next assay is HLA-B*39:01. The assay is described as above. The following applies: source organism: Vibrio vulnificus YJ016.
The next assay addresses HLA-A*02:06. The assay is described as above. To be noted: source organism: Vibrio vulnificus YJ016.
In assay [6] the target is HLA-A*69:01. The description is as above. The following applies: source organism: Vibrio vulnificus YJ016.
In assay [7] the target is HLA-B*08:01. Described as above. To be noted: source organism: Vibrio vulnificus YJ016.
Assay [8] addresses HLA-A*02:01. The description is as above. The following applies: source organism: Vibrio vulnificus YJ016.
The target in the next assay is HLA-B*48:01. Briefly: IEDB peptide-MHC binding, purified MHC/direct/fluorescence; filed as Kd, often an IC50 or EC50 that approximates it; ≥ and ≤ were set here for values at or beyond the usual limits of such assays. The following applies: source organism: Vibrio vulnificus YJ016.
For another assay, the target named is HLA-A*26:01. The assay is described as above.
The target in a further assay is HLA-B*15:09. The description is as above. The following applies: source organism: Vibrio vulnificus YJ016.
Another assay deals with HLA-B*57:01. Described as above. The following applies: source organism: Vibrio vulnificus YJ016.
The target of a further assay is HLA-B*46:01. The description is as above.
For the next assay, the target named is HLA-B*38:01. Described as above. The following applies: source organism: Vibrio vulnificus YJ016.
A further assay concerns the target HLA-B*15:17. The description is as above. To be noted: source organism: Vibrio vulnificus YJ016.
Assay [9] has as its target HLA-B*08:01. Described as above. The following applies: source organism: Influenza A virus (A/Switzerland/8808/2002(H1N1)).
For another assay, the target named is HLA-B*08:02. The assay is described as above. The following applies: source organism: Influenza A virus H3N2.
A further assay has as its target HLA-C*07:02. Described as above. To be noted: source organism: Hantaan virus 76-118.
The target in a further assay is HLA-A*02:12. Described as above. The following applies: source organism: Amur virus Solovey/AP63/1999.
The target of the next assay is HLA-A*02:11. The assay is described as above. To be noted: source organism: Amur virus Solovey/AP63/1999.
Another assay addresses HLA-C*04:01. The assay is described as above.
Assay [10] has as its target HLA-A*24:02. Briefly: IEDB peptide-MHC binding, purified MHC/competitive/fluorescence; filed as Kd, often an IC50 or EC50 that approximates it; ≥ and ≤ were set here for values at or beyond the usual limits of such assays. To be noted: source organism: Shigella flexneri 5 str. 8401.
[11] abbreviates: source organism: Escherichia coli O157:H7.
Setting [12] is: source organism: Francisella tularensis subsp. holarctica LVS.
[13] abbreviates: source organism: Vibrio vulnificus YJ016.
The mark [14] stands for this setting: source organism: Burkholderia mallei.
[15] abbreviates: source organism: Influenza A virus (A/Switzerland/8808/2002(H1N1)).

Where only a bound is given, the exact number is not on record here.

As for GMAEDLQSL, the equilibrium dissociation constant (Kd) was at most 0.0001 µM with HLA-A*02:50; at least 20 µM with HLA-B*40:01 (setting [11]); at least 20 µM in the assay with HLA-B*58:01 (setting [11]); at least 20 µM in the assay with HLA-A*03:01 (setting [11]); at least 20 µM with HLA-A*24:02 [1] (setting [11]); at least 20 µM with HLA-B*44:02. For the same sequence, the equilibrium dissociation constant (Kd) with HLA-B*07:02 (setting [11]) is at least 20 µM; with HLA-B*18:01 [2] (setting [11]) it was at least 20 µM; in the assay with HLA-A*69:01 [3] (setting [11]), 1 µM; with HLA-A*31:01 (setting [11]), at least 20 µM; with HLA-A*11:01 (setting [11]), at least 20 µM; with HLA-B*15:01 (setting [11]), 0.39 µM. The dissociation constant Kd with HLA-A*02:01 [4] (setting [11]) is 0.0657 µM; with HLA-B*27:05 (setting [11]), at least 20 µM; with HLA-A*01:01 (setting [11]) it was at least 20 µM.

With LTDKSGSEY, the Kd was determined as 0.29 µM with HLA-A*80:01 (setting [12]) and 0.0012 µM with HLA-A*01:01 (setting [12]).

As for EPADHLAIM, the Kd in the assay with HLA-A*30:01 is at least 20 µM; with HLA-B*18:01 [5] it was 3 µM; in the assay with HLA-B*39:01 it was 1.21 µM; in the assay with HLA-A*02:06 it was at least 20 µM; with HLA-A*69:01 [6], at least 20 µM; with HLA-B*08:01 [7], at least 20 µM. The dissociation constant (Kd) with HLA-A*02:01 [8] was 0.691 µM; with HLA-B*40:01 (setting [13]), at least 20 µM; with HLA-B*58:01 (setting [13]), at least 20 µM; in the assay with HLA-A*03:01 (setting [13]), at least 20 µM; with HLA-B*48:01, at least 20 µM; with HLA-A*26:01 (setting [13]), 0.047 µM. Also, the dissociation constant (Kd) with HLA-B*15:09, with HLA-A*31:01 (setting [13]), with HLA-B*57:01, in the assay with HLA-A*11:01 (setting [13]), in the assay with HLA-B*46:01 (setting [13]) and with HLA-B*15:01 (setting [13]) was at least 20 µM each time. For the same sequence, the Kd in the assay with HLA-B*38:01, with HLA-B*15:17, with HLA-B*27:05 (setting [13]) and in the assay with HLA-A*01:01 (setting [13]) was at least 20 µM in each case.

Take ALRRRTGTR: the dissociation constant (Kd) in the assay with HLA-A*80:01 (setting [14]) and with HLA-A*01:01 (setting [14]) was at least 20 µM in each case.

Regarding VPAQNAIST, the Kd in the assay with HLA-B*40:01 (setting [15]) is at least 20 µM; with HLA-B*58:01 (setting [15]), at least 20 µM; with HLA-A*03:01 (setting [15]) it was at least 20 µM; with HLA-A*24:02 [1] (setting [15]), at least 20 µM; in the assay with HLA-B*07:02 (source organism: Influenza A virus (A/Puerto Rico/8/34/Mount Sinai(H1N1))), 0.063 µM; with HLA-B*18:01 [2] (setting [15]) it was at least 20 µM. Moreover, the Kd in the assay with HLA-A*69:01 [3] (setting [15]), with HLA-A*26:01 (source organism: Influenza A virus H3N2), with HLA-B*08:01 [9], with HLA-A*31:01 (setting [15]), with HLA-A*11:01 (setting [15]) and with HLA-B*46:01 (setting [15]) was at least 20 µM throughout. Also, the equilibrium dissociation constant (Kd) with HLA-B*15:01 (setting [15]), with HLA-A*02:01 [4] (setting [15]), in the assay with HLA-B*27:05 (setting [15]), in the assay with HLA-A*01:01 (setting [15]) and with HLA-B*08:02 was at least 20 µM in each case.

For the sequence SMLSYGNVL, the Kd with HLA-C*07:02 is 0.614 µM; with HLA-A*02:01 [4] (source organism: Amur virus) it was at most 0.001 µM; with HLA-A*02:12, 0.075 µM; in the assay with HLA-A*02:11 it was 0.003 µM.

With STEFIPNLF, the dissociation constant (Kd) in the assay with HLA-C*04:01 (source organism: human gammaherpesvirus 4) was at least 20 µM.

Take VSITNPFLF: the Kd in the assay with HLA-A*24:02 [10] was 0.0057 µM; in the assay with HLA-C*04:01 (source organism: Shigella flexneri 5 str. 8401) it was at least 20 µM.
